How the values were obtained:
[1] = target: T1, Recombinant human TATA binding protein (ab81897, Abcam) (human); test: native MS; mixture of coreMYC (6) and full-length TBP (10; concentrations printed as mM), ammonium acetate (TBP exchanged into 1 M), no EGCG, sample cone 50 V; details: both partners purified
T1 construct: also called TBP; full-length, human TBP; source: bought: Abcam (ab81897)
T1 chain: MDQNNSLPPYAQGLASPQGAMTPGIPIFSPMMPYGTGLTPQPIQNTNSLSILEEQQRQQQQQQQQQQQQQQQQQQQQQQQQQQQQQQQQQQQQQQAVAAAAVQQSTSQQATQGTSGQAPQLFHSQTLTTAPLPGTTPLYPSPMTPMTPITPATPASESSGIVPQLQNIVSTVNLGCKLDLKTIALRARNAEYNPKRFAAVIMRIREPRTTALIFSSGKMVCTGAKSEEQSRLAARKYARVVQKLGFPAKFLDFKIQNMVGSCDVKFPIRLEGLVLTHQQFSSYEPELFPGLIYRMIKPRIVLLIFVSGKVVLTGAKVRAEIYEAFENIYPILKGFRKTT

[2] = target: T2, TRRAP_(2038-2087) synthetic peptide (N-terminal acetyl (Ac-), C-terminal amide (-NH2)); test: native MS; equimolar mixture, 15.5 uM coreMYC and 15 uM TRRAP_(2038-2087) peptide in 100 mM ammonium acetate, no EGCG, sample cone 10 V; details: both partners purified
T2 construct: transformation/transcription domain-associated protein (TRRAP), residues 2038-2087; also called TRRAP peptide; source: synthetic peptide (GenScript)
T2 peptide: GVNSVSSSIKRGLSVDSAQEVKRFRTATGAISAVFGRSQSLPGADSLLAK

stoichiometry N [1]: 1
stoichiometry N [2]: 1
B1: MGHis6-coreMYC (c-MYC residues 101-150) (peptide)
chain: MVTELLGGDMVNQSFICDPDDETFIKNIIIQDCMWSGFSAAAKLVSEKLA
notes: c-MYC, residues 101-150 (coreMYC); Cloned into pET-26b(+); also called MYC_(101-150); COnformational REgulator of c-MYC; source: E. coli BL21 (DE3), purified in-house (solubilised from the pellet in urea, His SpinTrap column); not shown: MGHis6, N-terminal, kept

From paper PMC10904854, “A druggable conformational switch in the c-MYC transactivation domain” (Nature Communications, 2024)
